A value given as a limit tells only on which side of the number the result lay.

This experiment deals with EGFP-tagged Rac1-Y64F (human), P63000. Kind of experiment: co-IP; MEF co-transfected with an EGFP-Rac1 construct and Flag-βPIX, Myc-Tiam1 or Myc-RhoGDI; modified RIPA buffer; 800 µg lysate, anti-GFP antibody and protein A sepharose, 4 °C; blots with anti-Flag or anti-Myc, normalised to the precipitated EGFP-Rac1. Particulars: remark: other sources report otherwise.

B1: Myc-tagged RhoGDI, P52565 1-204 (natural protein)
chain: MAEQEPTAEQLAQIAAENEEDEHSVNYKPPAQKSIQEIQELDKDDESLRKYKEALLGRVAVSADPNVPNVVVTGLTLVCSSAPGPLELDLTGDLESFKKQSFVLKEGVEYRIKISFRVNREIVSGMKYIQHTYRKGVKIDKTDYMVGSYGPRAEEYEFLTPVEEAPKGMLARGSYSIKSRFTDDDKTDHLSWEWNLTIKKDWKD
Molecule B1 returned a percent drop in binding against wild type of over 50%.

For the origin of these results see publication PMC3232246.
